Consider 84 variants from the RNAGym collection of RNA variant scans (doi:10.1073/pnas.2313332121).

This sample holds only a part of the variants without activity.

B1: TPR 5TU (parent)
chain: GGAUCUUCUCGAUCUAACAAAAAAGACAAAUCUGCCACAAAGCUUGAGAGCAUCUUCGGAUGCAGAGGCGGCAGCCUUCGGUGGCGCGAUAGCGCCAACGUUCUCAACUAUGACACGCAAAACGCGUGCUCCGUUGAAUGGAGUUUAUCAUG

The variants in the series derive from B1. The series can be described thus: polymerase ribozyme fitness, log enrichment relative to wild type (log ratio); higher = more active; in vitro selection for triplet polymerase activity. In a few lines:
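PCR was used to build mutant libraries for each subunit of a heterodimeric triplet polymerase ribozyme, which were then transcribed. A single in vitro selection round, in triplicate, used a frozen incubation at −7 °C and recovered extended constructs by gel excision, streptavidin beads and RT-PCR. Fitness is the logarithm of genotype enrichment relative to wild-type enrichment, averaged over replicates with inverse-variance weights. The logarithm is base 2, and after Illumina sequencing only genotypes with ≥10 input reads and ≥1 read per output were kept.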
Take U6C A21U C85U: the “polymerase ribozyme fitness (log ratio)” value is -0.501.
Consider C5G A37U G83C C129A U145A, for which the “polymerase ribozyme fitness (log ratio)” value is ≤ -4.2.
The result for C5G C32U U53G A73U C85U reads ≤ -4.2; that for U6A A142C, -0.741; that for U6A A23U G83A C105U C108A, ≤ -4.2.
Regarding C5A G86U G92U C116G, the “polymerase ribozyme fitness (log ratio)” value was -0.979.
The result for C5G C63A reads 0.429.
The result for C5A A29U A52C G74A A97G reads ≤ -4.2; that for U4C A115G, -1.57.
The result for C5G U6C C57A C85U reads -1.26; that for U6A A24C A40U A52U C57A A98U A115C, ≤ -4.2; that for U6A U7G U13A C35A C54A G71U A91U U101A U127C G141U, ≤ -4.2.
Regarding C5U U45A, the “polymerase ribozyme fitness (log ratio)” value is -2.1.
The result for C5U U6A C57U G67C G71A U82G C87G U104A U139G A142G reads ≤ -4.2; that for C5G G46C G50C C129U U134C C149U, ≤ -4.2; that for C5A G42C G84C C85A G86A G92C, ≤ -4.2.
In the case of C5G G68C C131U C132G U145G A150C, the “polymerase ribozyme fitness (log ratio)” value is ≤ -4.2.
The result for C5A A23C C85U G88A C105U A120G reads ≤ -4.2.
The result for U4G C5U A24U A26U G65U G88U G94U A98G G124U G143U reads ≤ -4.2; that for C5A A52C A73U U82C C85U G136U, ≤ -4.2; that for C5G A37U C43U A98G A121G, ≤ -4.2.
With U4C U53A A121C U144C, the “polymerase ribozyme fitness (log ratio)” value is -1.34.
The result for U6A A12G A30C A66U C95A A106G A120G G126C A150U reads ≤ -4.2; that for U4C A23C C43U G46A G84A C105G C118U A119C, ≤ -4.2; that for U6A C75U C93G C131G, ≤ -4.2.
The result for U4A U139C reads -4.08.
Consider C5U A41U G50A, for which the “polymerase ribozyme fitness (log ratio)” value was -2.81.
Take C5U A19G A21G A29G C87G C95G: the “polymerase ribozyme fitness (log ratio)” value is ≤ -4.2.
Regarding U4C C10G A17U A22G C36U U78A G92A C118U, the “polymerase ribozyme fitness (log ratio)” value was ≤ -4.2.
The result for C5A G42A A97G U101G C103G A110G G140U reads -3.6; that for U4A U7A G42C G48C A66C G67A C72U U101G, ≤ -4.2.
The result for C5U U139G reads 0.221; that for C5G G141A, 0.249.
The result for U6A G81C G94U A113U C114U U151C reads ≤ -4.2; that for C5A C35A C38U G74U C87A U148A, ≤ -4.2.
Take C5G C10G U13G C14G C54A C57U G88U G94A U139C U144C: the “polymerase ribozyme fitness (log ratio)” value was ≤ -4.2.
Take U4G C51G A73U C87U C96A G117A: the “polymerase ribozyme fitness (log ratio)” value is ≤ -4.2.
For U6C U45A, the “polymerase ribozyme fitness (log ratio)” value is -3.75.
On to C5U A26U, for which the “polymerase ribozyme fitness (log ratio)” value was -1.04.
Take C5U G143C: the “polymerase ribozyme fitness (log ratio)” value was -1.95.
Regarding C5U A20G A49U G86U, the “polymerase ribozyme fitness (log ratio)” value was -3.71.
As to U4G C10G A24U C35U U55G G83A C116A, the “polymerase ribozyme fitness (log ratio)” value was ≤ -4.2.
In the case of U4A G94C, the “polymerase ribozyme fitness (log ratio)” value is -0.637.
The result for U4G U61A G88A reads ≤ -4.2; that for C5U C14U A26U C118G A121U, -3.94.
The result for C5U C14U A23C U90C C96A C103G G124U reads ≤ -4.2; that for U4G A73G G92U A107U A122U, -3.96.
Consider C5G A20U U33G A39C U55G C57A A91G A138C, for which the “polymerase ribozyme fitness (log ratio)” value was ≤ -4.2.
With U6A G25C G141A U146A, the “polymerase ribozyme fitness (log ratio)” value was -2.69.
The result for U6C A40U C51U A52C C99U G112C reads ≤ -4.2; that for C5G U135C, -2.4.
C5G G94C A122C: the “polymerase ribozyme fitness (log ratio)” value was -1.03.
C5A A12G C35A G42A C96U: the “polymerase ribozyme fitness (log ratio)” value is ≤ -4.2.
The result for C5G G124C reads -0.88; that for U6A A22U C27A C54A C57A C76U U78C C87U G128C A137G G141C, ≤ -4.2.
The result for U6C C14A A49U G50U A52G C93G C99G reads ≤ -4.2; that for C5U C18U C85A, -0.0024; that for C5G A16C G59U C96A, -2.66.
On to C5A C8U U9G C51U C85U A106U A107C C118A, for which the “polymerase ribozyme fitness (log ratio)” value was ≤ -4.2.
C5A C57U G86A A120G G141C: the “polymerase ribozyme fitness (log ratio)” value was -2.54.
Take U6A C10A C27G G46C C69A C93U G94C A97C: the “polymerase ribozyme fitness (log ratio)” value is ≤ -4.2.
The result for U4G G67A C85U C116A A122U A150U G152C reads ≤ -4.2; that for U6A A64U A66G G84A, ≤ -4.2.
Turning to C5A A30C U82G U102C C131U, the “polymerase ribozyme fitness (log ratio)” value is ≤ -4.2.
In the case of U6C A49C C99A U146C, the “polymerase ribozyme fitness (log ratio)” value is ≤ -4.2.
The result for U6A A26G A64C C87U A89C U146C reads ≤ -4.2.
U4G A12C U15A G80C U90G G126C G143C: the “polymerase ribozyme fitness (log ratio)” value is ≤ -4.2.
As for C5A G50U G84A U135A U139A G141C, the “polymerase ribozyme fitness (log ratio)” value was ≤ -4.2.
The result for U4C C8A G59A reads -4.18; that for U4G C18U C51U G80C A91G C95G C105U U109A A119U, ≤ -4.2.
In the case of U6A A17C A52U G84U A89C G141A, the “polymerase ribozyme fitness (log ratio)” value was -3.87.
For U4G U13C A19G A52G U56G A64U G80C A91G C95G C105U U109A A119U, the “polymerase ribozyme fitness (log ratio)” value is ≤ -4.2.
For U6C G74U U102A C123A, the “polymerase ribozyme fitness (log ratio)” value was ≤ -4.2.
In the case of U6A A22U, the “polymerase ribozyme fitness (log ratio)” value was determined as 0.00924.
The result for C5U G81U C87A A107G U144G reads ≤ -4.2; that for U6A C57U A60U C99U U111G G126U C129G, ≤ -4.2; that for C5G A12G A19U C75A C103G C114U G117A A121C A142U, ≤ -4.2.
The result for U4C A24U U61A reads -1.7; that for C5A C75U U90C A91G A150G, ≤ -4.2; that for U4C C51A U82A C96A, ≤ -4.2.
The result for U6A A12G A16U C43U G83A reads ≤ -4.2; that for U4G G34A C96G A97U C123A C132A, ≤ -4.2.
As for U4G A30G A91G G94C G128U C132A, the “polymerase ribozyme fitness (log ratio)” value is ≤ -4.2.
Take C5G G25U C27G A37G G46A U61A C96U: the “polymerase ribozyme fitness (log ratio)” value is -4.17.
